According to IntAct's records for PubMed 35512704:

B1: Speckle-type POZ protein (Homo sapiens), O43791 (parent)
chain: MSRVPSPPPPAEMSSGPVAESWCYTQIKVVKFSYMWTINNFSFCREEMGEVIKSSTFSSGANDKLKWCLRVNPKGLDEESKDYLSLYLLLVSCPKSEVRAKFKFSILNAKGEETKAMESQRAYRFVQGKDWGFKKFIRRDFLLDEANGLLPDDKLTLFCEVSVVQDSVNISGQNTMNMVKVPECRLADELGGLWENSRFTDCCLCVAGQEFQAHKAILAARSPVFSAMFEHEMEESKKNRVEINDVEPEVFKEMMCFIYTGKAPNLDKMADDLLAAADKYALERLKVMCEDALCSNLSVENAAEILILADLHSADQLKTQAVDFINYHASDVLETSGWKSMVVSHPHLVAEAYRSLASAQCPFLGPPRKRLKQS

Variants of: B1
Settings: with jak1_human JAK1, P23458
jak1_human JAK1, P23458, sequence (P23458 whole entry): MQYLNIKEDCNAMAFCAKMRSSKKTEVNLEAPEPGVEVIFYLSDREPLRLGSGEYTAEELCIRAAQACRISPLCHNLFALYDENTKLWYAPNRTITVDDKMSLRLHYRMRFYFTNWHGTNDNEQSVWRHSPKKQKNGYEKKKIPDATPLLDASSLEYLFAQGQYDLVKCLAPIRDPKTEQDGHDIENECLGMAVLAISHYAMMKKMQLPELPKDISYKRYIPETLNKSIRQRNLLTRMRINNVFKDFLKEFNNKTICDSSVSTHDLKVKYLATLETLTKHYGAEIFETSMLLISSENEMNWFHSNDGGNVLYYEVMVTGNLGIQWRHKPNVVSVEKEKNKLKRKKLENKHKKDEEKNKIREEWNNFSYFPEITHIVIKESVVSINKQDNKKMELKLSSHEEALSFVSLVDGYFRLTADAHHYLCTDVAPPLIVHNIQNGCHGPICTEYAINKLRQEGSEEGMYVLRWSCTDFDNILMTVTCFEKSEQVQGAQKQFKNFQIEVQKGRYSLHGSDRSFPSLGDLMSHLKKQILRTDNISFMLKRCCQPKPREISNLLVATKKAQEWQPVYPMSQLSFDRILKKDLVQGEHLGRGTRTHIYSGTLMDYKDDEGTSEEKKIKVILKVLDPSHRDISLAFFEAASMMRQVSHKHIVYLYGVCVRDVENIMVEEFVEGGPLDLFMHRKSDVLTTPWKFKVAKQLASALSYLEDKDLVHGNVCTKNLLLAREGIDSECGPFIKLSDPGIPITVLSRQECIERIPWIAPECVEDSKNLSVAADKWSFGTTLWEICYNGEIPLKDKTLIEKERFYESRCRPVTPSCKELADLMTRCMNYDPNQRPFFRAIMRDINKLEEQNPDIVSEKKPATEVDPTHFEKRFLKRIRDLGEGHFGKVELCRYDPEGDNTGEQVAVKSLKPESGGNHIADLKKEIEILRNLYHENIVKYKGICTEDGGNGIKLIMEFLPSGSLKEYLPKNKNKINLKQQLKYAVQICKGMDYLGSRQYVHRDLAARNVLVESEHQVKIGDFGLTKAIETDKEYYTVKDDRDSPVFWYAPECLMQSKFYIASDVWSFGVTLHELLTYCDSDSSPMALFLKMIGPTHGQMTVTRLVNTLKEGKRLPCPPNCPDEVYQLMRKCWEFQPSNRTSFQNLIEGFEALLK

Variant | effect of a mutation on the interaction
Y87C | with no effect

Variants of: B1
Settings: with jak3_human JAK3, P52333

Variant | effect of a mutation on the interaction
Y87C | with no effect

Variants of: B1
Settings: with kat2a_human KAT2A

Variant | effect of a mutation on the interaction
Y87C | with no effect

Variants of: B1
Settings: with kdm5a_human KDM5A

Variant | effect of a mutation on the interaction
Y87C | with no effect

Variants of: B1
Settings: with kdm5c_human KDM5C

Variant | effect of a mutation on the interaction
Y87C | with no effect

Variants of: B1
Settings: with kdm6a_human KDM6A

Variant | effect of a mutation on the interaction
Y87C | with no effect

Variants of: B1
Settings: with vgfr2_human KDR

Variant | effect of a mutation on the interaction
Y87C | with no effect

Variants of: B1
Settings: with lims1_human LIMS1, P48059

Variant | effect of a mutation on the interaction
Y87C | with no effect

Variants of: B1
Settings: with maga6_human MAGEA6, P43360
maga6_human MAGEA6, P43360, sequence (P43360 whole entry): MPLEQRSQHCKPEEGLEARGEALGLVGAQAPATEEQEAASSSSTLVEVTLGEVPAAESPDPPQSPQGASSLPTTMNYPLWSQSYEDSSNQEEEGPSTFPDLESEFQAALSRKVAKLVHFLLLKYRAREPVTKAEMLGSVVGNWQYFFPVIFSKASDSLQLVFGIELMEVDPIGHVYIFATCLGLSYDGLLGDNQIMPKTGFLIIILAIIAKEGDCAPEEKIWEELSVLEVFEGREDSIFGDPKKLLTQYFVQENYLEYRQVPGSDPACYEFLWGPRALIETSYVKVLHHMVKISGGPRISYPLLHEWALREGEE

Variant | effect of a mutation on the interaction
Y87C | with no effect

Variants of: B1
Settings: with m3k1_human MAP3K1, Q13233

Variant | effect of a mutation on the interaction
Y87C | with no effect

Variants of: B1
Settings: with mk10_human MAPK10, P53779

Variant | effect of a mutation on the interaction
Y87C | with no effect

Variants of: B1
Settings: with mk14_human MAPK14, Q16539

Variant | effect of a mutation on the interaction
Y87C | with no effect

Variants of: B1
Settings: with mk03_human MAPK3, P27361

Variant | effect of a mutation on the interaction
Y87C | with no effect

Variants of: B1
Settings: with mk04_human MAPK4, P31152

Variant | effect of a mutation on the interaction
Y87C | with no effect

Variants of: B1
Settings: with mk06_human MAPK6, Q16659

Variant | effect of a mutation on the interaction
Y87C | with no effect

Variants of: B1
Settings: with sin1_human MAPKAP1, Q9BPZ7

Variant | effect of a mutation on the interaction
Y87C | with no effect

Variants of: B1
Settings: with mcl1_human MCL1, Q07820

Variant | effect of a mutation on the interaction
Y87C | with no effect

Variants of: B1
Settings: with mdm2_human MDM2, Q00987

Variant | effect of a mutation on the interaction
Y87C | with no effect

Variants of: B1
Settings: with mitf_human MITF

Variant | effect of a mutation on the interaction
Y87C | with no effect

Variants of: B1
Settings: with mlh1_human MLH1, P40692

Variant | effect of a mutation on the interaction
Y87C | with no effect

Variants of: B1
Settings: with mtor_human MTOR

Variant | effect of a mutation on the interaction
Y87C | with no effect

Variants of: B1
Settings: with mybb_human MYBL2, P10244

Variant | effect of a mutation on the interaction
Y87C | with no effect

Variants of: B1
Settings: with myc_human MYC

Variant | effect of a mutation on the interaction
Y87C | with no effect

Variants of: B1
Settings: with mycn_human MYCN

Variant | effect of a mutation on the interaction
Y87C | with no effect

Variants of: B1
Settings: with ncoa3_human NCOA3, Q9Y6Q9

Variant | effect of a mutation on the interaction
Y87C | with no effect

Variants of: B1
Settings: with merl_human NF2, P35240

Variant | effect of a mutation on the interaction
Y87C | with no effect

Variants of: B1
Settings: with nfic_human NFIC

Variant | effect of a mutation on the interaction
Y87C | with no effect

Variants of: B1
Settings: with ikba_human NFKBIA

Variant | effect of a mutation on the interaction
Y87C | with no effect

Variants of: B1
Settings: with notc2_human NOTCH2, Q04721

Variant | effect of a mutation on the interaction
Y87C | with no effect

Variants of: B1
Settings: with nox1_human NOX1, Q9Y5S8

Variant | effect of a mutation on the interaction
Y87C | with no effect

Variants of: B1
Settings: with ntrk2_human NTRK2, Q16620

Variant | effect of a mutation on the interaction
Y87C | with no effect

Variants of: B1
Settings: with ntrk3_human NTRK3, Q16288

Variant | effect of a mutation on the interaction
Y87C | with no effect

Variants of: B1
Settings: with pak3_human PAK3, O75914

Variant | effect of a mutation on the interaction
Y87C | with no effect

Variants of: B1
Settings: with prkn_human PRKN

Variant | effect of a mutation on the interaction
Y87C | with no effect

Variants of: B1
Settings: with pb1_human PBRM1, Q86U86

Variant | effect of a mutation on the interaction
Y87C | with no effect

Variants of: B1
Settings: with pcbp1_human PCBP1, Q15365

Variant | effect of a mutation on the interaction
Y87C | with no effect

Variants of: B1
Settings: with pdcd1_human PDCD1, Q15116

Variant | effect of a mutation on the interaction
Y87C | with no effect

Variants of: B1
Settings: with pgfrb_human PDGFRB

Variant | effect of a mutation on the interaction
Y87C | with no effect

Variants of: B1
Settings: with pdk1_human PDK1, Q15118

Variant | effect of a mutation on the interaction
Y87C | with no effect

Variants of: B1
Settings: with PIK3C2B

Variant | effect of a mutation on the interaction
Y87C | with no effect

Variants of: B1
Settings: with pk3cb_human PIK3CB

Variant | effect of a mutation on the interaction
Y87C | with no effect

Variants of: B1
Settings: with pk3cg_human PIK3CG

Variant | effect of a mutation on the interaction
Y87C | with no effect

Variants of: B1
Settings: with p85b_human PIK3R2, O00459
p85b_human PIK3R2, O00459, sequence (O00459 whole entry): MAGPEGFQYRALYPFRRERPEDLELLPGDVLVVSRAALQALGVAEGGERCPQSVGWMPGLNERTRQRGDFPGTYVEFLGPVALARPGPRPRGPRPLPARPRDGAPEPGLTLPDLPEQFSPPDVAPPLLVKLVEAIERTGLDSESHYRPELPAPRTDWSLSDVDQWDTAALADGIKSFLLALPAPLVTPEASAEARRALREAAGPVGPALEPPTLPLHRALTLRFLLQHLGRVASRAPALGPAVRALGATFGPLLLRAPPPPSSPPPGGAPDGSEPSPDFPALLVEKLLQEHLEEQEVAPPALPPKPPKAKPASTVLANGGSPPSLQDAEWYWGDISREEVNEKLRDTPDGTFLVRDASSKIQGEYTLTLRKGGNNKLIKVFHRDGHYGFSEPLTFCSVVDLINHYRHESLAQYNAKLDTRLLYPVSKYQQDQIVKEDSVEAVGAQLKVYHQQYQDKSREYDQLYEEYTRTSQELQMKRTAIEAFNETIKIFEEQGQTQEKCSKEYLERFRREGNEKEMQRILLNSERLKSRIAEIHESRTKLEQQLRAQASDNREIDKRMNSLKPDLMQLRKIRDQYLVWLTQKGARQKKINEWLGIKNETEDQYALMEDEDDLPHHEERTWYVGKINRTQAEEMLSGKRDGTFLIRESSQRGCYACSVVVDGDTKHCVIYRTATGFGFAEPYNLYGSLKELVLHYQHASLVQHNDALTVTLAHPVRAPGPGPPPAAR

Variant | effect of a mutation on the interaction
Y87C | with no effect

Variants of: B1
Settings: with dpod1_human POLD1, P28340

Variant | effect of a mutation on the interaction
Y87C | with no effect

Variants of: B1
Settings: with dpoe1_human POLE

Variant | effect of a mutation on the interaction
Y87C | with no effect

Variants of: B1
Settings: with ppard_human PPARD

Variant | effect of a mutation on the interaction
Y87C | with no effect

Variants of: B1
Settings: with prdm1_human PRDM1, O75626
prdm1_human PRDM1, O75626, sequence (O75626 whole entry): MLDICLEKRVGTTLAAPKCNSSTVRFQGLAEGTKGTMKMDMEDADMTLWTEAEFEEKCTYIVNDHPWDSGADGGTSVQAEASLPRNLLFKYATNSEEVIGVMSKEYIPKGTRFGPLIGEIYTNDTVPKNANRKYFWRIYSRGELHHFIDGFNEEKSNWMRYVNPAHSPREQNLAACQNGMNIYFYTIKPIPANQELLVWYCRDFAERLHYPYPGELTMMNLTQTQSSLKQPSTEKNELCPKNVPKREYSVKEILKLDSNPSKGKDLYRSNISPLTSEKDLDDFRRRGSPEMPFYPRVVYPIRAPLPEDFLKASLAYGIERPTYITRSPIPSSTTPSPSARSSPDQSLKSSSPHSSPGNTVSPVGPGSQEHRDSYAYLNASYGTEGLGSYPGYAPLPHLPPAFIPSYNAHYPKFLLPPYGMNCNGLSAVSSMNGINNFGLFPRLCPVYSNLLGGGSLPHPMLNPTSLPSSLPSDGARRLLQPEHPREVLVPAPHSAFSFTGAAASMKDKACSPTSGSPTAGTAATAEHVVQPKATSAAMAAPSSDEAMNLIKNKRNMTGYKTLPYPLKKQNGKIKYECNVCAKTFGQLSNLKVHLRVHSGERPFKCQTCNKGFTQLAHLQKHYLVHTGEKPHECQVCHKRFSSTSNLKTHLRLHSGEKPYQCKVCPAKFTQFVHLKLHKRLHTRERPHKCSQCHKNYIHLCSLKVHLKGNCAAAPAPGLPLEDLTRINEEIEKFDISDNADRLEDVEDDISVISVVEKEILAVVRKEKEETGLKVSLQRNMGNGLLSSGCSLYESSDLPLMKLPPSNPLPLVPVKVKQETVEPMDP

Variant | effect of a mutation on the interaction
Y87C | with no effect

Variants of: B1
Settings: with prex2_human PREX2, Q70Z35

Variant | effect of a mutation on the interaction
Y87C | with no effect

Variants of: B1
Settings: with aapk2_human PRKAA2, P54646

Variant | effect of a mutation on the interaction
Y87C | with no effect

Variants of: B1
Settings: with prss8_human PRSS8, Q16651
prss8_human PRSS8, Q16651, sequence (Q16651 whole entry, looked up): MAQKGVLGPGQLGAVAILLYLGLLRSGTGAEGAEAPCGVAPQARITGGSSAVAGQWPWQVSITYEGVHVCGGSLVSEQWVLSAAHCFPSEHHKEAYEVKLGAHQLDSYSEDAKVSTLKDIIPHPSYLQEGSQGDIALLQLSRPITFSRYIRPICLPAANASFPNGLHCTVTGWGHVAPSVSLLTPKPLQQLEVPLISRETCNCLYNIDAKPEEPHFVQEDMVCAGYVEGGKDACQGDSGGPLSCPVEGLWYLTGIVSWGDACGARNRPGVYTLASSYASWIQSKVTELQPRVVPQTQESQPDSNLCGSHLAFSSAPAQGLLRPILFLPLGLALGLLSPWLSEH

Variant | effect of a mutation on the interaction
Y87C | with no effect

Variants of: B1
Settings: with ptk6_human PTK6, Q13882

Variant | effect of a mutation on the interaction
Y87C | with no effect

Variants of: B1
Settings: with tf65_human RELA

Variant | effect of a mutation on the interaction
Y87C | with no effect

Variants of: B1
Settings: with rictr_human RICTOR

Variant | effect of a mutation on the interaction
Y87C | with no effect

Variants of: B1
Settings: with rnf43_human RNF43, Q68DV7

Variant | effect of a mutation on the interaction
Y87C | with no effect

Variants of: B1
Settings: with ros1_human ROS1, P08922

Variant | effect of a mutation on the interaction
Y87C | with no effect

Variants of: B1
Settings: with rl11_human RPL11, P62913

Variant | effect of a mutation on the interaction
Y87C | with no effect

Variants of: B1
Settings: with rl5_human RPL5, P46777

Variant | effect of a mutation on the interaction
Y87C | with no effect

Variants of: B1
Settings: with rs15_human RPS15, P62841

Variant | effect of a mutation on the interaction
Y87C | with no effect

Variants of: B1
Settings: with rs2_human RPS2, P15880

Variant | effect of a mutation on the interaction
Y87C | with no effect

Variants of: B1
Settings: with rptor_human RPTOR

Variant | effect of a mutation on the interaction
Y87C | with no effect

Variants of: B1
Settings: with rxra_human RXRA

Variant | effect of a mutation on the interaction
Y87C | with no effect

Variants of: B1
Settings: with sdha_human SDHA

Variant | effect of a mutation on the interaction
Y87C | with no effect

Variants of: B1
Settings: with setbp_human SETBP1, Q9Y6X0

Variant | effect of a mutation on the interaction
Y87C | with no effect

Variants of: B1
Settings: with setb1_human SETDB1, Q15047

Variant | effect of a mutation on the interaction
Y87C | with no effect

Variants of: B1
Settings: with skp2_human SKP2, Q13309

Variant | effect of a mutation on the interaction
Y87C | with no effect

Variants of: B1
Settings: with smad1_human SMAD1, Q15797

Variant | effect of a mutation on the interaction
Y87C | with no effect

Variants of: B1
Settings: with smca4_human SMARCA4, P51532

Variant | effect of a mutation on the interaction
Y87C | with no effect

Variants of: B1
Settings: with snf5_human SMARCB1, Q12824
snf5_human SMARCB1, Q12824, sequence (Q12824 whole entry): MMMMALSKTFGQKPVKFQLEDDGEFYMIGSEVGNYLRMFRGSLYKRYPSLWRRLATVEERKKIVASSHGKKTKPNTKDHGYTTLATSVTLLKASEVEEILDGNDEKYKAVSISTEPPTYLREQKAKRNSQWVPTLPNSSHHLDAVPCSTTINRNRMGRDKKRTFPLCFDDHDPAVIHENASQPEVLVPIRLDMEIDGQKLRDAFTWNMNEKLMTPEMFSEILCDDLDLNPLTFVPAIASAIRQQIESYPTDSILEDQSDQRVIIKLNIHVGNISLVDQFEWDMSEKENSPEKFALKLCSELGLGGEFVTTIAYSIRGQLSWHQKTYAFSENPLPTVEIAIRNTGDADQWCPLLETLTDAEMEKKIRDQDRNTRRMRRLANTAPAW

Variant | effect of a mutation on the interaction
Y87C | with no effect

Variants of: B1
Settings: with smo_human SMO

Variant | effect of a mutation on the interaction
Y87C | with no effect

Variants of: B1
Settings: with smuf1_human SMURF1, Q9HCE7

Variant | effect of a mutation on the interaction
Y87C | with no effect

Variants of: B1
Settings: with socs1_human SOCS1, O15524
socs1_human SOCS1, O15524, sequence (O15524 whole entry): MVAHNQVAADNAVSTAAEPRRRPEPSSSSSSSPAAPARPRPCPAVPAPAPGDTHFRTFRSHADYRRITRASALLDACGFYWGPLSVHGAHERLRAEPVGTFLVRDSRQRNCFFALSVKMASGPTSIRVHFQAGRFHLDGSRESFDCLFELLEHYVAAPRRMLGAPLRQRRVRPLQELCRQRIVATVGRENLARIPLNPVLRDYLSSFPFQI

Variant | effect of a mutation on the interaction
Y87C | with no effect

Variants of: B1
Settings: with sox10_human SOX10, P56693
sox10_human SOX10, P56693, sequence (P56693 whole entry): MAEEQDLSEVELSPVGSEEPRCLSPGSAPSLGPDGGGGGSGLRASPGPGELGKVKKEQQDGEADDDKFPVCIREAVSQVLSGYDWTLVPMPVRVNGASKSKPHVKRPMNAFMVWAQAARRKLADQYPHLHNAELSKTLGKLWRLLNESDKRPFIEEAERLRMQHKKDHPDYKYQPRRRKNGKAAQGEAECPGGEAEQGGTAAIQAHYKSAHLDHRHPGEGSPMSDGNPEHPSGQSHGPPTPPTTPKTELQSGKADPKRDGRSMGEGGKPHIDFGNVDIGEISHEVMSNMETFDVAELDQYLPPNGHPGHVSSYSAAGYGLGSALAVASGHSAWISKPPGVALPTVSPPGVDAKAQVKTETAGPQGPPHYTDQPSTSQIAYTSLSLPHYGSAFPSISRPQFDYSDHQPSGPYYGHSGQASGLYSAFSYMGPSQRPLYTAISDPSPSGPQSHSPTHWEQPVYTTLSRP

Variant | effect of a mutation on the interaction
Y87C | with no effect

Variants of: B1
Settings: with sox2_human SOX2, P48431

Variant | effect of a mutation on the interaction
Y87C | with no effect

Variants of: B1
Settings: with src_human SRC

Variant | effect of a mutation on the interaction
Y87C | with no effect

Variants of: B1
Settings: with whr1_human WHR1, P49842

Variant | effect of a mutation on the interaction
Y87C | with no effect

Variants of: B1
Settings: with stk38_human STK38, Q15208

Variant | effect of a mutation on the interaction
Y87C | with no effect

Variants of: B1
Settings: with eloc_human ELOC

Variant | effect of a mutation on the interaction
Y87C | with no effect

Variants of: B1
Settings: with tfe2_human TCF3, P15923

Variant | effect of a mutation on the interaction
Y87C | with no effect

Variants of: B1
Settings: with tead1_human TEAD1, P28347

Variant | effect of a mutation on the interaction
Y87C | with no effect

Variants of: B1
Settings: with tead3_human TEAD3, Q99594

Variant | effect of a mutation on the interaction
Y87C | with no effect

Variants of: B1
Settings: with tead4_human TEAD4, Q15561

Variant | effect of a mutation on the interaction
Y87C | with no effect

Variants of: B1
Settings: with tet2_human TET2, Q6N021

Variant | effect of a mutation on the interaction
Y87C | with no effect

Variants of: B1
Settings: with tgfr2_human TGFBR2, P37173

Variant | effect of a mutation on the interaction
Y87C | with no effect

Variants of: B1
Settings: with tnr14_human TNFRSF14, Q92956

Variant | effect of a mutation on the interaction
Y87C | with no effect

Variants of: B1
Settings: with tsc2_human TSC2, P49815

Variant | effect of a mutation on the interaction
Y87C | with no effect

Variants of: B1
Settings: with tshr_human TSHR

Variant | effect of a mutation on the interaction
Y87C | with no effect

Variants of: B1
Settings: with vegfa_human VEGFA

Variant | effect of a mutation on the interaction
Y87C | with no effect

Variants of: B1
Settings: with vhl_human VHL

Variant | effect of a mutation on the interaction
Y87C | with no effect

Variants of: B1
Settings: with wee1_human WEE1, P30291

Variant | effect of a mutation on the interaction
Y87C | with no effect

Variants of: B1
Settings: with wwtr1_human WWTR1, Q9GZV5
wwtr1_human WWTR1, Q9GZV5, sequence (Q9GZV5 whole entry): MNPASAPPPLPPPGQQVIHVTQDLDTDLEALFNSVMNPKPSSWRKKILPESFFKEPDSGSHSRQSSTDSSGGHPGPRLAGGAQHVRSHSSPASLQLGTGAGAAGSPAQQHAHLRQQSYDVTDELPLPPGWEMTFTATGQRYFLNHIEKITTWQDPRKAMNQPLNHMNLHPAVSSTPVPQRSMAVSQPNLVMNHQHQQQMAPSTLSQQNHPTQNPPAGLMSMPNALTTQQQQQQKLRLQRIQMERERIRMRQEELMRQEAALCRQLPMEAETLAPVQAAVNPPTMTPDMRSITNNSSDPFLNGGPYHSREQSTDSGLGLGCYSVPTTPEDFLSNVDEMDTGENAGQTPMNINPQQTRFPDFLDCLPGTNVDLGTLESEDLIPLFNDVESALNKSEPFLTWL

Variant | effect of a mutation on the interaction
Y87C | with no effect

Variants of: B1
Settings: with xpo1_human XPO1, O14980

Variant | effect of a mutation on the interaction
Y87C | with no effect

Variants of: B1
Settings: with il7ra_human IL7R

Variant | effect of a mutation on the interaction
Y87C | increasing interaction strength
